Substitutions are numbered along the chain they refer to.
Experiments:
Assay in all cases: ELISA, antigen coated at 1 ug/ml
[1] = target: T1, human EpCAM-hFc (in-house production) (human, UniProt P16422 24-265, limits assumed)
T1 construct: not shown: human Fc
T1 sequence (looked up): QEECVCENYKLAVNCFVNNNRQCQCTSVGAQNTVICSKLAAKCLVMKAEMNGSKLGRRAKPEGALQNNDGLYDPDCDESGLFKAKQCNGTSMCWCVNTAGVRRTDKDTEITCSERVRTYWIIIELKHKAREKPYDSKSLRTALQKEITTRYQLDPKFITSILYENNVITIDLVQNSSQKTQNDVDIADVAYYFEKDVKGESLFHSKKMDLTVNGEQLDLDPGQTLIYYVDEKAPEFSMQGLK
Procedure: (§1) A similar protocol was used as described in section 1.2.1 in which maxisorp plates were coated with 1 μg/ml of recombinant human MSLN-His-Avi, human CEACAM-5-His-Fc (Sino Biological, 1077-H03H), human E-Cadherin (R&D systems, 8505-EC), human Thrombomodulin (Peprotech, 100-58) or human EpCAM-hFc (in-house production). Binding of the anti-MSLN mAbs, tested at a concentration range of 0.02 to 1000 nM (3-fold dilutions) was detected using anti-human Fab-HRP (Sigma, A0293). Positive controls for the respective molecules included human EpCAM antibody (clone 2G8 from patent no. U.S. Pat. No. 8,236,308 B2) CEACAM-5 antibody (clone hMN15 from patent no. U.S. Pat. No. 8,771,690 B2), human E-Cadherin antibody, mouse IgG2b clone 180215 (R&D systems, MAB1838), human Thrombomodulin antibody, mouse IgG1, clone 501733 (R&D systems, MAB3947). The latter two were detected using goat anti mouse Fc-HRP (Sigma, A9309) as secondary mAb.

[2] = target: T2, human E-Cadherin (R&D systems, 8505-EC) (human, UniProt P12830 155-707)
T2 sequence (looked up): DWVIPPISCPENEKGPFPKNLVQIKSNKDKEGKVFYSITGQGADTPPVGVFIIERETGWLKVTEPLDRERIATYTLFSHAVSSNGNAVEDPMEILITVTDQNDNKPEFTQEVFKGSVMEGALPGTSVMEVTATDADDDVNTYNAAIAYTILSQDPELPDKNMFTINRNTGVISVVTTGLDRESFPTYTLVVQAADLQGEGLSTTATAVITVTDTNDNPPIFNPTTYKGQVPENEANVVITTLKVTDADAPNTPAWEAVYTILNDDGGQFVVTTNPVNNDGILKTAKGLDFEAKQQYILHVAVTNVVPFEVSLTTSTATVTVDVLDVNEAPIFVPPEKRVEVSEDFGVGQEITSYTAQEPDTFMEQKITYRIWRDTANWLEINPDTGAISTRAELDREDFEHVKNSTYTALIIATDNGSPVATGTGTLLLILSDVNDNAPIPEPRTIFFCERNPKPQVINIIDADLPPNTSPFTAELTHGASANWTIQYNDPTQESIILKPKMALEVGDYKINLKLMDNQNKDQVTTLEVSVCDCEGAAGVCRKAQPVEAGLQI
Procedure: as §1

[3] = target: T3, human CEACAM-5-His-Fc (Sino Biological, 1077-H03H) (human, UniProt P06731 35-685)
T3 construct: not shown: His tag and Fc
T3 sequence (looked up): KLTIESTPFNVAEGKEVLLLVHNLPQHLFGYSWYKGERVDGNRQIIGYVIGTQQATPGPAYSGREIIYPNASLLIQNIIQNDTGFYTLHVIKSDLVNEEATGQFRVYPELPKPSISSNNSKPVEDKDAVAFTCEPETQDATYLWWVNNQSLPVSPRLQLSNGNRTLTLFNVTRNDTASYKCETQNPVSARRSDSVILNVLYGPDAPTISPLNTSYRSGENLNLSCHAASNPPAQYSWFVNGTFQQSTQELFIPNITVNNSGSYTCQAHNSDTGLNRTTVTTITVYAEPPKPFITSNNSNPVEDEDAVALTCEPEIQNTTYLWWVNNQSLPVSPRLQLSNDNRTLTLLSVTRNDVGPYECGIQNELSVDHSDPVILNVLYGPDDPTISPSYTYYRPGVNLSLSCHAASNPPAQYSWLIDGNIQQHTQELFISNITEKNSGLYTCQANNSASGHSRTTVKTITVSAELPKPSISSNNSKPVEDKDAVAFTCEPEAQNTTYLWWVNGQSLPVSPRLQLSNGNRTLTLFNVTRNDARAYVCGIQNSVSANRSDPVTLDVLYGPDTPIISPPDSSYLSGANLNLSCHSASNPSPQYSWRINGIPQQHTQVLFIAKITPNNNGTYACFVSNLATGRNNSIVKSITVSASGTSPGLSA
Procedure: as §1

[4] = target: human Thrombomodulin (Peprotech, 100-58) (human, UniProt P07204 19-515)
Chain of human Thrombomodulin (Peprotech, 100-58) (P07204 19-515 limits assumed): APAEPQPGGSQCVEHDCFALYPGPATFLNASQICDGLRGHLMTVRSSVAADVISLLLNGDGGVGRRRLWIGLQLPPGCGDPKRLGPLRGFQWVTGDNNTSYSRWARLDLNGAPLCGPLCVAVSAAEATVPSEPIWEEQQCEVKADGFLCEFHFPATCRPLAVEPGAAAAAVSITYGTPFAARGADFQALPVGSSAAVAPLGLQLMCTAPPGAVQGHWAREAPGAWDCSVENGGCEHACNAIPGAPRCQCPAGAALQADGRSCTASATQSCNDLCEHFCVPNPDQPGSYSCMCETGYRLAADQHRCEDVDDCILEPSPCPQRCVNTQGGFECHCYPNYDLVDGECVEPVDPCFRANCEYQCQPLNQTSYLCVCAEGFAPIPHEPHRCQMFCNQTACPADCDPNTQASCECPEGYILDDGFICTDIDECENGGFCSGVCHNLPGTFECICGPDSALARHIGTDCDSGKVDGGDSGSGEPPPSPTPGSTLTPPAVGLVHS
Procedure: as §1

Measured: binding result

B1: G1-AA/FS28-026 (antibody, human IgG1, kappa, L234A L235A, V domains shown)
VH: EVQLLESGGGLVQPGGSLRLSCAASGFTFSNYAMTWVRQAPGKGLEWVSSITPYYSKTDYADSVKGRFTISRDNSKNTLYLQMNSLRAEDTAVYYCARNWYRFDYWGQGTLVTVSS
VL: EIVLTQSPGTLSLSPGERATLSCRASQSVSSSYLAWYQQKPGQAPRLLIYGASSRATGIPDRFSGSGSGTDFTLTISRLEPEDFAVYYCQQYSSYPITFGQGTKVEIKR
notes: IgG1 LALA; also called FS28-026 mAb (in G1-AA format)
no binding (tested: 1000 nM): [1] | [2] | [3] | [4]

B2: G1-AA/FS28-091 (antibody, human IgG1, kappa, L234A L235A, V domains shown)
VH: B1 VH with S30T, T35S, T52K, Y55D, S56G, K57N, D59Y, W100R, Y101W, R102V
VL: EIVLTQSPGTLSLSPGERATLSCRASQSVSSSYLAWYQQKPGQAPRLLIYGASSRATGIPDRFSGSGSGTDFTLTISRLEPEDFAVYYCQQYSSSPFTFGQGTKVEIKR
notes: IgG1 LALA; also called FS28-091 mAb (in G1-AA format)
no binding (tested: 1000 nM): [1] | [2] | [3] | [4]

B3: G1-AA/FS28-024 (antibody, human IgG1, kappa, L234A L235A, V domains shown)
VH: EVQLLESGGGLVQPGGSLRLSCAASGFTLSYSSMSWVRQAPGKGLEWVSFITPSTGYTHYADSVKGRFTISRDNSKNTLYLQMNSLRAEDTAVYYCARRALTFDYWGQGTLVTVSS
VL: EIVLTQSPGTLSLSPGERATLSCRASQSVSSSYLAWYQQKPGQAPRLLIYGASSRATGIPDRFSGSGSGTDFTLTISRLEPEDFAVYYCQQASSYPLTFGQGTKVEIKR
notes: Complete human IgG1 with LALA mutation; also called FS28-024 mAb (in G1-AA format)
no binding (tested: 1000 nM): [1] | [2] | [3] | [4]

Source: patent publication US20220267421A1 (INVOX PHARMA, published 2022)
